Laboratory results reported in US8835136B2, “Engineered amine dehydrogenases and methods of use thereof” (Georgia Tech Research Corporation, priority 2012, dated 2014).
Values joined by “and” are separate entries in the source; they are usually repeats but may differ in a detail not shown here. Equal entries are not always repeated. Where two headings read alike, the source gives them in different places.

Assays:
[1] = Reductive amination, spectrophotometric assay at 340 nm; type: biochemical; conditions: 500 mM NH4Cl/NH4OH pH 9.6, 200 μM NADH, 20 mM, 25° C.
[2] = Oxidative deamination, spectrophotometric assay at 340 nm; type: biochemical; conditions: deamination
[3] = Reductive amination of PFPA, spectrophotometric assay at 340 nm; type: biochemical
Procedure: (§1) Activity of purified proteins was measured using a spectrophotometric assay at 340 nm, corresponding to the cofactor nicotinamide adenine dinucleotide (NADH, ε340=6220 M^−1 cm^−1) (Dawson, et al., Clarendon Press, (1989). For reductive amination, reactions took place in 500 mM NH4Cl/NH4OH at pH 9.6, with 200 μM NADH and 20 mM of the ketone substrate, unless otherwise specified. For oxidative deamination, reactions took place in 0.1 M NaHCO3/Na2CO3 buffer at pH 10.0, with 1 mM NAD+ with 10 mM of the amine substrate of interest. All reactions were performed at 25° C. unless otherwise specified. Enzyme was added in 10 μL aliquots in dilute concentrations. Enzyme concentrations varied upon activity levels with the substrate present, but were dilute enough to ensure linear conversion kinetics over the analytical time period (10 min to 30 min). Specific activities were then calculated from the stoichiometric conversion of cofactor as determine by the change in absorbance at 340 nm over time.
(§2) The activity of the purified protein was evaluated using a spectrophotometric assay at 340 nm as described in Section 3.2.3 at 25° C. in various concentrations of NH4Cl/NH4OH buffer pH 9.6.
Active variants were identified by the rate of change in absorbance at 340 nm, corresponding to the fastest activity. […] Some variants consumed the cofactor too quickly (<5 min) to be observed over multiple time points, and gave low absorbance in the initial time point. These variants were included for further characterization. The successful variants were sequenced (MWG Operon), and each unique sequence was expressed in pET28a/BL21 for histag purification and determination of kcat and KM values with PFPA.

[4] = Reductive amination, spectrophotometric assay at 340 nm; type: biochemical; conditions: 500 mM NH4Cl/NH4OH pH 9.6, 200 μM NADH, 20 mM, 25° C.; remark: listed apart in the source
Procedure: as §1, §2

[5] = Thermostability by circular dichroism (PheDH); type: physicochemical
Description: The thermostability of the AmDH was compared to its wild-type scaffold using two different methods, circular dichroism (CD) and a temperature versus activity profile. The mutation of the enzyme scaffold has affected the thermostability, in addition to the enzyme's function. […] Beyond 30 degrees, there is an earlier onset in the pronounced loss of structure of the double variant compared to the wild type; however, the slope folded fraction over temperature stays constant, indicative of constant enthalpy of melting. The K77S N276L mutations have slightly destabilized the protein structure, resulting in a melting point of 59.9° C., 4.4° C. less than the wild type. The specific cause for this change is difficult to determine. It likely to be either disruption of the ‘ideal’ packing of the wild-type enzyme's hydrophobic core or a net decrease in hydrophobicity by the amino acid substitutions which leads to a lower folding entropy.

[6] = Temperature versus activity profile (PheDH-AmDH); type: biochemical
Procedure: The thermostability of the double variant K77S N276L was additionally determined by a temperature versus activity plot, showing the results of amination activity measured in 5 M NH4Cl/NH4OH buffer pH 9.6, 200 μM NADH, 20 mM PFPA for 2 minutes (FIG. 17). […] The near linear increase corresponds to a low activation energy of 241 J mol^−1. The maximum specific activity was 11.6 U mg^−1 at a temperature of 50° C. Above 50° C., the enzyme began to rapidly lose activity as a result of denaturation. This deactivation correlated well with the circular dichroism data, where a dramatic loss of secondary structure was observed from 50° C. to 70° C.

[7] = Conversion with GDH cofactor recycle system (PheDH-AmDH); type: biochemical; conditions: 100 mL, 20 mM PFPA, 48 hours
Procedure: The GDH consumes glucose present in solution to cheaply and efficiently regenerate the NADH cofactor, allowing conversion to continue beyond stoichiometric depletion of NADH. In a 100 mL reaction volume containing 20 mM PFPA, conversion was allowed to continue for 48 hours followed by extraction and ^1H-NMR to confirm the product formation and conversion levels. […] Under the same reaction conditions, 17.46 mg of the AmDH enhanced the overall conversion to 93.8% and 73.9% yield. Evidence of chirality was indicated by different NMR signals of the C3 hydrogens (δ 2.67, 2.49) which are adjacent to the C2 stereocenter (FIG. 18).

[8] = Enantioselectivity of PFPA amination, chiral gas chromatography; type: biochemical; conditions: chiral GC after TFAA derivatization
Description: Equally important to conversion is maintaining the selectivity of the enzyme after altering the substrate specificity. Preservation of the wild type (S)-selectivity towards phenylalanine will result in the asymmetric production of (R)-1-(4-fluorophenyl)-propyl-2-amine due to a change in Cahn-Ingold-Prelaw priority. The product amine resulting from enzymatic conversion with the co-factor recycle was isolated and derivatized using trifluoroacetic anhydride for analysis via chiral gas chromatography. An enantiomeric excess of >99.8% toward (R)-1-(4-fluorophenyl)-propyl-2-amine was confirmed, however, further resolution of the selectivity was limited by the separation capability of the chiral column. Throughout all experiments, the (S)-enantiomer remained below the detection limits. Even as the enzyme approaches levels of conversion beyond 90%, the high enantioselectivity toward (R)-1-(4-fluorophenyl)-propyl-2-amine is maintained. This renders the AmDH/GDH system a viable method for the production of chiral amines.

B1: K77S N276L: PheDH-AmDH double variant, SEQ ID NO:2; PheDH library 1 hit 1H4 (protein)
chain: SLVEKTSIIKDFTLFEKMSEHEQVVFCNDPATGLRAIIAIHDTTLGPALGGCRMQPYNSVEEALEDALRLSKGMTYSCAASDVDFGGGKAVIIGDPQKDKSPELFRAFGQFVDSLGGRFYTGTDMGTNMEDFIHAMKETNCIVGVPEAYGGGGDSSIPTAMGVLYGIKATNKMLFGKDDLGGVTYAIQGLGKVGYKVAEGLLEEGAHLFVTDINEQTLEAIQEKAKTTSGSVTVVASDEIYSQEADVFVPCAFGGVVNDETMKQFKVKAIAGSANLQLLTEDHGRHLADKGILYAPDYIVNSGGLIQVADELYEVNKERVLAKTKHIYDAILEVYQQAELDQITTMEAANRMCEQRMAARGRRNSFFTSSVKPKWDIRN
Activity, MIBK [1]: 77.0 ± 1.3 mU/mg | Activity, cyclohexanone [1]: 27.5 ± 1.4 mU/mg | Activity, ethylpyruvate [1]: 18.4 ± 5.9 mU/mg | Activity, R/S-MBA ([2]; 40 mM, 20 mM of each enantiomer): 0.5 ± 0.2 mU/mg | Activity, 1,3-DMBA ([2]; 0.1M glycine pH 10.0, 1 mM NAD+, 20 mM, 25° C.): 166.3 ± 0.0 mU/mg | enhancement above maximum kcat of LeuDH-AmDH [3]: ~15 fold | kcat, amination of PFPA ([3]; 500 mM NH4Cl/NH4OH pH 9.6, 200 μM NADH, apparent): 2.8 s⁻¹ | Km ([3]; 500 mM NH4Cl/NH4OH pH 9.6, 200 μM NADH, read-out: KM, amination of PFPA): 4.37 mM | Km ([3]; 5 M NH4Cl/NH4OH pH 9.6, 200 μM NADH, read-out: KM value of PFPA): 7.75 mM | kcat with all three substrates saturated ([3]; aqueous NH4Cl/NH4OH buffer pH 9.6, 25° C.): 6.85 s⁻¹ | Activity, 1-Boc-piperidone [4]: 7.8 ± 1.1 mU/mg | Activity, 2-hexanone [4]: 155.7 mU/mg and 155.7 ± 1.4 mU/mg | Activity, 2-methylcyclohexanone [4]: 19.3 ± 1.1 mU/mg | Activity, 3-hexanone [4]: 1.6 mU/mg and 1.6 ± 0.5 mU/mg | Activity, 3-methyl-2-butanone [4]: 72.7 ± 1.4 mU/mg | Activity, 3-methylcyclohexanone [4]: 41.1 ± 2.1 mU/mg | Activity, 3-pentanone [4]: 1.3 ± 0.0 mU/mg | Activity, Benzyloxyacetic acid [4]: 22.6 ± 0.7 mU/mg | Activity, benzaldehyde [4]: 31.4 ± 8.7 mU/mg | Activity, cyclopentanone [4]: 0.9 ± 0.5 mU/mg | Activity, phenoxy-2-propanone [4]: 540.8 ± 6.9 mU/mg | Activity, 2-hexanone ([4]; listed as K77S/N276L): 155.7 mU/mg | Activity, 3-hexanone ([4]; listed as K77S/N276L): 1.6 mU/mg | decrease of melting point versus the wild type [5]: 4.4 °C | melting point ([5]; 100 μg mL-1, 50 mM sodium phosphate pH 8.0): 59.9 °C | activation energy ([6]; 10-45° C.): 0.0576 kcal/mol | maximum specific activity ([6]; at 50° C., 5 M NH4Cl/NH4OH pH 9.6, 200 μM NADH, 20 mM PFPA): 11.6 U mg^−1 | conversion of 4-fluorophenyl acetone ([7]; 7.48 mg AmDH): 89.4% | overall conversion ([7]; 17.46 mg AmDH): 93.8% | enantiomeric excess toward (R)-1-(4-fluorophenyl)-propyl-2-amine [8]: > 99.8%
